The source of these data is PMC3498625.

One may read the stoichiometry N as a count of units in the complex or per binding partner.

The target in this assay is Wza from E. coli K30, purified DDM-solubilised octameric complex (E. coli K30). Nature of the assay: cryo-EM structure.

Take “Wza from E. coli K30, purified DDM-solubilised octameric complex (natural protein)”: the stoichiometry N was found to be 8.
